The target of this experiment is T1, biotinylated IL31 (human, UniProt Q6EBC2 24-164, biotinylated (sites not given)).
T1 construct: also called human IL-31; huIL-31
T1 sequence: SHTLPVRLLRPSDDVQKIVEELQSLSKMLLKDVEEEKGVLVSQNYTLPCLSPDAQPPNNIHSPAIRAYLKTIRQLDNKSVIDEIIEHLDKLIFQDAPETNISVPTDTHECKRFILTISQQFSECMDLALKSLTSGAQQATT
As to the kind of experiment: ELISA with a dilution series of biotinylated IL31, 4-parameter fit (apparent Kd/EC50 as IL31 concentration); parental mouse mAb as control; average of duplicate. The source says: The assay format utilized a goat anti-human Fc immobilization for capture of human monoclonal antibodies from unprocessed cell culture conditioned media. A dilution series of biotinylated IL31 tested the “C” parameter of a 4-parameter fit which results in the apparent Kd (or EC50) in either ng/mL or nM of IL31. The assay sensitivity is high enough that dilute monoclonal antibody or chimeric antibody cell culture conditioned media can be evaluated. The Kd determined by this method generally approaches the Kd measured for purified, homogeneous monoclonal antibodies measured using Biacore.
On the technique in general: In an ELISA, binding on a coated surface is turned into a signal by an enzyme label.

Where “and” joins values, the source holds several entries; their conditions need not be identical. Equal entries are not always repeated.

B1: 292.63.5.3 (Lot E9289) Control monoclonal antibody (antibody, V domains shown)
VH: EVQLVESGGDLVKPGGSLKLSCAASGFTFSTFIMSWVRQSPEKRLEWVATINSGGYYTFHPDSVKGRFTISRDNAKNTLYLQMSSLRSEDTAIYYCARQEGWSSAYFSWGQGTLVTVSA
VL: DIVMTQSPSSLDMSEGQKVTMICKSSQSLLNGSNQKNYLAWYQQKPGQSPKLLVSFASTRDSGVPDRFIGSGSGTDFTLTITNVQAEDLADYFCQQHYDTPYTFGGGKLEIR
notes: Mouse anti-human IL-31 hybridoma monoclonal antibody
A word on the EC50: it is the midpoint of the concentration-response curve. On to B1, for which the EC50 was 0.0043 µg/mL and 0.26 nM.

Source of the values: US20100008909A1 (ZymoGenetics, published 2010).
